Experimental findings from US20180037632A1 (BIONTECH, published 2018) are described below.

By koff is commonly meant the rate constant with which the complex falls apart. As usually defined, the kon is a measure of how fast the partners come together. By IC50 is commonly meant the concentration that gives 50% inhibition.

For assay [1], the target named is T1, recombinant soluble human Seprase (rhuSeprase) (human, UniProt Q12884 29-760).
T1 construct: range 29-760; Secreted from CHO-S cells with a mouse Ig kappa secretion signal (not part of the protein in the assay); also called recombinant human Seprase; soluble fraction of human Seprase
T1 sequence: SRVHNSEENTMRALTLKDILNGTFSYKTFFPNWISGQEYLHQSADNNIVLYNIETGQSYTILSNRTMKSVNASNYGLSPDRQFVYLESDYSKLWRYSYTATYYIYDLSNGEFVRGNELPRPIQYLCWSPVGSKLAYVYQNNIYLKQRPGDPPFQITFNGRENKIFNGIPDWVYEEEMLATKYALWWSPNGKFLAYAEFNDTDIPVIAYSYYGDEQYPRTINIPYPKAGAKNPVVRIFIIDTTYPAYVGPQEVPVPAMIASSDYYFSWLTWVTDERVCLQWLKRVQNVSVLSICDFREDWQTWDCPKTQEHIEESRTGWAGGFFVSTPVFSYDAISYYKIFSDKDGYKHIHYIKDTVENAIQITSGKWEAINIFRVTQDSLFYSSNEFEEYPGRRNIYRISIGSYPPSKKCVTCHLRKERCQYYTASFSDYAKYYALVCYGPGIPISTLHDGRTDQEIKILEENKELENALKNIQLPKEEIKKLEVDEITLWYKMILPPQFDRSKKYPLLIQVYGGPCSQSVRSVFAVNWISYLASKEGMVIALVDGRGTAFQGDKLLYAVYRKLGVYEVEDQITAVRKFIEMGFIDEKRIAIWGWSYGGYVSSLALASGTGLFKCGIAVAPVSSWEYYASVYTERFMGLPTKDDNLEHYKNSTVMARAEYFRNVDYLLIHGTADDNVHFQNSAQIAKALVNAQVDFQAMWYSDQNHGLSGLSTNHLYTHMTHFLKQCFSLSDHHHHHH
Description: SPR (Biacore T100), rhuSeprase immobilised, MC-FA-010 at 37, 111,11, 333,33, 1000 and 3000 nM, global fit; Rmax 316,6 RU; Chi² 9,42 RU²; U-value 1. The procedure: (§1) To obtain insights of the kinetic binding properties surface plasmon resonance (SPR) analysis was performed on a Biacore T100 device (GE Healthcare). Therefore, rhuSeprase was immobilized onto a CM5 chip via NHS/EDC mediated coupling as described by manufacturer at 10 μl/min for 420 sec. […] Kd values were calculated using the provided software.
(§2) As a next step a more detailed analysis of binding kinetic was performed using surface plasmon resonance technology (SPR). Therefore, recombinant human Seprase was immobilized on a CMS chip (GE Healthcare) with an amino reactive surface. […] Association and dissociation data was fitted and corresponding dissociation constant and kinetic values (Kon, Koff and Kd) was calculated using the provided software of the system (FIGS. 4A and B).
Background: In SPR one partner is held on a chip, and binding of the other changes the refractive index at the surface.

The target of assay [2] is T1, recombinant soluble human Seprase …. Description: competition ELISA on coated rhuSeprase: free MC-FA-010 (0.64 to 3167 nM) against 3 nM Trx-MC-FA-010, detected with anti-S-Tag-HRP, OD 450 nm. How it is done:
(§3) For protein based ELISA analysis 5 μg of the respective recombinant protein (rhuSeprase; streptavidin: Sigma; DPP-IV: R&D Systems, BSA: Eurobio) were immobilized per well of a MaxiSorp™ plate (Nunc) by overnight incubation in coating buffer at 4° C. After washing thrice with 300 μl PBS-T/well on a Hydrospeed plate washer (Tecan) the wells were blocked with 1×Casein solution (Sigma, diluted in PBS) for 2 h at RT. Subsequently, the wells were washed as indicated above. 100 μl of the respective Trx-miniprotein fusion diluted in PBS-T was then added and incubated for 1 h at 4° C. […] For competition ELISAs a fixed concentration of 3 nM Trx-miniprotein fusion was mixed with varying concentration (0.64-3167 nM) of solitary miniprotein before incubation. Binding of the Trx-fusion was detected after a PBS-T washing procedure using HRP coupled anti S-tag antibody as described above. Apparent Kd was calculated using Sigmaplot 10 and an one site saturation binding model for fitting of the data.
Detection of bound miniprotein was achieved via anti S-Tag-HRP conjugated antibody (S-tag is provided by thioredoxin fusion expression system, FIG. 3A). EC₅₀ values were calculated using the one-site-saturation binding model in Sigma plot 10.
A general note: An ELISA detects its analyte on a solid surface through an enzyme-linked reagent.

The target is the same in assay [3]. Description: SPR (Biacore T100), recombinant human Seprase immobilized, 37-3000 nM MC-FA-010; Seprase on the chip; monovalent MC-FA-010, 37-3000 nM, Biacore T100. How it is done:
as §1, §2

The target is the same in assay [4]. The assay is described as follows: SPR (Biacore T-100), rhuSeprase immobilized on CM5, steady state analysis, 1:1 fit. The procedure: (§4) RhuSeprase (20 μg/ml in PBS, 5% mannitol, 5% trehalose) was immobilized on an amino reactive Series S Sensor Chip CM5 (GE Healthcare). For binding analysis of monomeric Microbodies rhuSeprase was loaded to a maximum of 7500 RU, for oligomeric Microbodies to a maximum of 700 RU. Monomeric Microbodies were measured using a multi cycle kinetic method in a concentration range of 3.125 to 1000 nM based on expected dissociation constant. Association step was measured over a time period of 60-90 seconds, dissociation over 420 seconds. Trimeric Mircobodies were measured using a single cycle kinetics method in a concentration range of 0.3125 to 5 nM (association for 90 seconds, dissociation 420 seconds). Binding kinetics and steady state analysis were calculated using a 1:1 binding model (Biacore T-100 Evaluation Software, GE Healthcare).
(§5) The binding kinetics of monomeric and trimeric Seprase-binding Microbodies was determined using surface plasmon resonance spectroscopy on a Biacore T-100 system.

Assay [5] shares this target. The assay is described as follows: SPR (Biacore T-100), rhuSeprase immobilized on CM5, multi cycle kinetics, 1:1 fit. How it is done:
as §4, §5

Assay [6] has the same target. The assay is described as follows: SPR (Biacore T-100). How it is done: as §4, §5
Assay [7] shares this target. Description: SPR (Biacore T-100), rhuSeprase immobilized on CM5, single cycle kinetics, 1:1 fit. How it is done: as §4, §5
Assay [8] addresses T2, human Seprase, full length, on cells (human, UniProt Q12884 1-760).
T2 construct: whole, on cells; also called CHO-K1-Seprase; CHO-K1-huSeprase
T2 sequence (looked up): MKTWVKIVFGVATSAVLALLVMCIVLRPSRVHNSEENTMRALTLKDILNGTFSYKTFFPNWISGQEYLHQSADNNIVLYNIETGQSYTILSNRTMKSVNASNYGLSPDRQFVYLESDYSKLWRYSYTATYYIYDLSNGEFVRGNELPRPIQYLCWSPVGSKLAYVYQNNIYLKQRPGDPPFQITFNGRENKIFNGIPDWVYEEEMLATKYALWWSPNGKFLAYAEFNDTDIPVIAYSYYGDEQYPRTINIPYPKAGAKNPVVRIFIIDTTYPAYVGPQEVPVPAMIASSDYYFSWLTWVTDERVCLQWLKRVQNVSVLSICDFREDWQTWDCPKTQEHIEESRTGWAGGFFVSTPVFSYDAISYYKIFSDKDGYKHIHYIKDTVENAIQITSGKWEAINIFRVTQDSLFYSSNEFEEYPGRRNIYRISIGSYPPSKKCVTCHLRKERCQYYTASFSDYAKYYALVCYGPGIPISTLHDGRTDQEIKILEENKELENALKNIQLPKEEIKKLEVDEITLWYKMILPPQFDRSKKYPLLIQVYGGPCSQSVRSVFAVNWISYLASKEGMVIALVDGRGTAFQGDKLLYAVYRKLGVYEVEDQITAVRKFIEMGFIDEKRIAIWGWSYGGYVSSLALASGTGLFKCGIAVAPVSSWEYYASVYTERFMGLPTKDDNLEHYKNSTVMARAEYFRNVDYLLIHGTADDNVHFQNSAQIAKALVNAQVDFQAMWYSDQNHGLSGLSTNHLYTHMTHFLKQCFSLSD
The assay is described as follows: FACS-based competition on CHO-K1-huSeprase cells, competitor Trx-MC-FA-012 detected with anti-H6-PE.

Assay [9] addresses T1, recombinant soluble human Seprase …. Description: direct ELISA on coated rhuSeprase, Trx fusion detected with anti-S-tag-HRP; apparent KD from one site saturation fit; Error 64,43; R2 0,9863. The procedure: as §3
For assay [10] the target is unchanged. Description: direct ELISA on coated rhuSeprase; binding relative to the parental Trx-MC-FA-010. How it is done:
as §3

Assay [11] shares this target. Description: direct ELISA on coated rhuSeprase, Trx fusion detected with anti-S-tag-HRP; apparent KD from one site saturation fit; Error 3,63; R2 0,9974. How it is done:
as §3

Assay [12] shares this target. Description: direct ELISA on coated rhuSeprase, Trx fusion detected with anti-S-tag-HRP; apparent KD from one site saturation fit; Error 11,54; R2 0,9969. How it is done:
as §3

For assay [13] the target is unchanged. The assay is described as follows: direct ELISA on coated rhuSeprase, Trx fusion detected with anti-S-tag-HRP; apparent KD from one site saturation fit; Error 7,6; R2 0,9962. The procedure: as §3

Positions of bridges follow the written chain, without caps; N, C: chain ends. No end group written: not given here.

B1: MC-FA-010 (designed binder)
chain: GKCPYSNWTPGRGPDCRRDSDCPGRCICRGNGYCG
modifications: disulfide (positions not given here)
notes: also called soluble monovalent MC-FA-010; solitary MC-FA-010 miniprotein
For the molecule B1, the Kd in assay [1] is 562 nM; in assay [3], ~560 nM; in [4], 106 nM; in assay [5], 149 nM. Further, the koff in assay [1] worked out at 0.151 s⁻¹; in assay [5], 0.201 s⁻¹. The association rate constant (kon) in assay [1] was 268000 M⁻¹ s⁻¹; in [5], 1.53e+06 M⁻¹ s⁻¹. Also, in assay [2], the IC50 is ~20 nM.

B2: DOTA-(MC-FA-012)3 (designed binder)
chain 1: GACPYSNWTPGRGPDCRRDSDCPGRCICRGNGYCG
chain 2: GACPYSNWTPGRGPDCRRDSDCPGRCICRGNGYCG
chain 3: GACPYSNWTPGRGPDCRRDSDCPGRCICRGNGYCG
modifications: each of chains 1-3: N-terminal aminooxy group oxime-ligated to an oxidised serine of the anchor; three disulfides (cystine knot) per chain; anchor carries an N-terminal DOTA chelator
notes: Purchased from Pepscan; about 13000 Da; also called DOTA conjugated trimerized MC-FA-012; MC-FA-012 trimer; not shown: the anchor scaffold (N-terminal DOTA, three Lys-Ser units separated by GSGS linkers)
Regarding B2, in assay [6], the “times slower offrate compared to MC-FA-012” value is ~530 fold. The figures for the Kd in assay [7] and in assay [4] were 0.0124 nM and 0.249 nM, respectively. In addition, the kon in assay [7] came to 2.11e+07 M⁻¹ s⁻¹. The IC50 in assay [8] was found to be 43.3 nM.

B3: Trx-MC-FA-0112 (designed binder)
chain: GKCPYSNWTPGRAPDCRRDSDCPGRCICRGNGYCG
modifications: disulfide 16-28, 22-34, 3-26; also: N-terminal Trx-His6-S-tag fusion carrier, not in chain
notes: the position follows from the order of the rows; also called alanine scan variant G13A of MC-FA-010, Trx fusion; not shown: Thioredoxin-A, His-tag (H6), S-tag and linker of the pET-32-LibEx fusion, N-terminal of the miniprotein
Turning to B3, in assay [9], the Kd is 217 nM. Further, the “Relative Bindung im Vergleich zu Trx-MC-FA-010 [%]” value in assay [10] came out at 6.98%.

B4: Trx-MC-FA-018 (designed binder)
chain: GKCPYSNWAPGRGPDCRRDSDCPGRCICRGNGYCG
modifications: disulfide 16-28, 22-34, 3-26; also: N-terminal Trx-His6-S-tag fusion carrier, not in chain
notes: the position follows from the order of the rows; also called alanine scan variant T9A of MC-FA-010, Trx fusion; not shown: thioredoxin-A, His6 tag, S-tag and linkers of the pET-32-LibEx fusion (N-terminal carrier)
B4: in assay [11], the Kd was determined as 50.6 nM. Besides, the “Relative Bindung im Vergleich zu Trx-MC-FA-010 [%]” value in [10] was 29.9%.

B5: Trx-MC-FA-016 (designed binder)
chain: GKCPYSAWTPGRGPDCRRDSDCPGRCICRGNGYCG
modifications: disulfide (positions not given here); also: N-terminal thioredoxin-A, His6, S-tag and linker carrier, letters not given here
notes: the position follows from the order of the rows; also called alanine scan variant N7A of MC-FA-010, Trx fusion; not shown: thioredoxin-A, His6 tag, S-tag and linkers of the pET-32-LibEx fusion (N-terminal carrier)
For the molecule B5, the Kd in [12] was 113 nM. In assay [10], the “Relative Bindung im Vergleich zu Trx-MC-FA-010 [%]” value came out at 13.4%.

B6: Trx-MC-FA-019 (designed binder)
chain: GKCPYSNWTAGRGPDCRRDSDCPGRCICRGNGYCG
modifications: disulfide 16-28, 22-34, 3-26; also: N-terminal Trx-His6-S-tag fusion carrier, not in chain
notes: the position follows from the order of the rows; also called alanine scan variant P10A of MC-FA-010, Trx fusion; not shown: thioredoxin-A, His6 tag, S-tag and linkers of the pET-32-LibEx fusion (N-terminal carrier)
Consider B6, for which, in [13], the Kd is 78.7 nM. Moreover, the “Relative Bindung im Vergleich zu Trx-MC-FA-010 [%]” value in assay [10] came out at 19.3%.
